In paper PMC2173740 (The Journal of Cell Biology, 2003):
Values joined by “and” are separate entries in the source; they are usually repeats but may differ in a detail not shown here. Equal values may be shown once.

T1: Toc75 (pea (endogenous in pea chloroplast …, UniProt Q43715 132-809))
T1 sequence (looked up): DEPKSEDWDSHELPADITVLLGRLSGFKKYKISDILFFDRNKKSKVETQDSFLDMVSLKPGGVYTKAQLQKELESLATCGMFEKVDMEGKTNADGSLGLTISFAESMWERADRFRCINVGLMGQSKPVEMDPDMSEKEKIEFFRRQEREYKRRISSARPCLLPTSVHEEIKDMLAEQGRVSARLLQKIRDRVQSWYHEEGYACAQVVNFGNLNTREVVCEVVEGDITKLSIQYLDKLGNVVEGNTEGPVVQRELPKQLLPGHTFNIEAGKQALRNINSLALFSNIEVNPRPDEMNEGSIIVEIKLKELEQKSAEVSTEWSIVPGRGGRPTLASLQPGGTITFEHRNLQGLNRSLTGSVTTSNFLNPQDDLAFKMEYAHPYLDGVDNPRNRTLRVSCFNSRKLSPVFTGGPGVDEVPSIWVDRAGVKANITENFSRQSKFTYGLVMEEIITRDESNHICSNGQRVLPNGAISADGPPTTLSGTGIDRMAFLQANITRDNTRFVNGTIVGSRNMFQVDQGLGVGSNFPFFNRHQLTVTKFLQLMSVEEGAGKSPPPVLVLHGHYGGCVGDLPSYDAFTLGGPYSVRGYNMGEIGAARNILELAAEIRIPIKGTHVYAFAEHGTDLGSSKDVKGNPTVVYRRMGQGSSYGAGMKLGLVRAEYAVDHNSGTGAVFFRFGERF


Tests used:
[1] = target: 86-kD fragment of Toc159 (pea (endogenous in pea chloroplast outer envelope)); assay: subunit quantification by Coomassie staining
[2] = target: 86-kD fragment of Toc159 (pea (endogenous in pea chloroplast outer envelope)); assay: subunit quantification by radioactive NEM labelling of cysteines
[3] = target: 86-kD fragment of Toc159 (pea (endogenous in pea chloroplast outer envelope)); assay: subunit quantification by immunoblot
[4] = target: T1, Toc75; assay: co-sedimentation

| stoichiometry N (molecules per Toc159) [1] | stoichiometry N (molecules per Toc159) [2] | stoichiometry N (molecules per Toc159) [3] | binding result [4] | Binder |
| --- | --- | --- | --- | --- |
| 4 | 4 | 4 to 5 |  | Toc75 (natural protein) DEPKSEDWDSHELPADITVLLGRLSGFKKYKISDILFFDRNKKSKVETQDSFLDMVSLKPGGVYTKAQLQKELESLATCGMFEKVDMEGKTNADGSLGLTISFAESMWERADRFRCINVGLMGQSKPVEMDPDMSEKEKIEFFRRQEREYKRRISSARPCLLPTSVHEEIKDMLAEQGRVSARLLQKIRDRVQSWYHEEGYACAQVVNFGNLNTREVVCEVVEGDITKLSIQYLDKLGNVVEGNTEGPVVQRELPKQLLPGHTFNIEAGKQALRNINSLALFSNIEVNPRPDEMNEGSIIVEIKLKELEQKSAEVSTEWSIVPGRGGRPTLASLQPGGTITFEHRNLQGLNRSLTGSVTTSNFLNPQDDLAFKMEYAHPYLDGVDNPRNRTLRVSCFNSRKLSPVFTGGPGVDEVPSIWVDRAGVKANITENFSRQSKFTYGLVMEEIITRDESNHICSNGQRVLPNGAISADGPPTTLSGTGIDRMAFLQANITRDNTRFVNGTIVGSRNMFQVDQGLGVGSNFPFFNRHQLTVTKFLQLMSVEEGAGKSPPPVLVLHGHYGGCVGDLPSYDAFTLGGPYSVRGYNMGEIGAARNILELAAEIRIPIKGTHVYAFAEHGTDLGSSKDVKGNPTVVYRRMGQGSSYGAGMKLGLVRAEYAVDHNSGTGAVFFRFGERF |
| 4 to 6 | 4 to 5 | 4 and 6 | binds | Toc34 (natural protein, UniProt Q41009 1-310, looked up) MASQQQTVREWSGINTFAPATQTKLLELLGNLKQEDVNSLTILVMGKGGVGKSSTVNSIIGERVVSISPFQSEGPRPVMVSRSRAGFTLNIIDTPGLIEGGYINDMALNIIKSFLLDKTIDVLLYVDRLDAYRVDNLDKLVAKAITDSFGKGIWNKAIVALTHAQFSPPDGLPYDEFFSKRSEALLQVVRSGASLKKDAQASDIPVVLIENSGRCNKNDSDEKVLPNGIAWIPHLVQTITEVALNKSESIFVDKNLIDGPNPNQRGKLWIPLIFALQYLFLAKPIEALIRRDIATETKPAWETRDVGDRK |
